# In US11932673B2, “Sodium channel inhibitors” (priority 2017, dated 2024):
# T1: huASIC1a (Homo sapiens, UniProt P78348)
# T1 sequence (P78348 whole entry, looked up): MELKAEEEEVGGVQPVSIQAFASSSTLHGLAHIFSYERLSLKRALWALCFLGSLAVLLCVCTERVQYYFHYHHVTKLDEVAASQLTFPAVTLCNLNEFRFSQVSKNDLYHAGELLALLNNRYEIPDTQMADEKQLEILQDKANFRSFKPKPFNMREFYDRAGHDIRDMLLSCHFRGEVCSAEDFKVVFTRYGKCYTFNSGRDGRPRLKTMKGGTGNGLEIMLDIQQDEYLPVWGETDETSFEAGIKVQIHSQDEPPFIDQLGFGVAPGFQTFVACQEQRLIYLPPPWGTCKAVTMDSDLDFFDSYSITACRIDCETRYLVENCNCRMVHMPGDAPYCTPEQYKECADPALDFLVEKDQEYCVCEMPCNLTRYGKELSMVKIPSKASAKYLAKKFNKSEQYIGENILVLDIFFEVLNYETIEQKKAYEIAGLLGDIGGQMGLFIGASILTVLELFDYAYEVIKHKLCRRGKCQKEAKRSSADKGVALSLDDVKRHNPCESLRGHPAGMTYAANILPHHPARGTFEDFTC
# Key:
# huASIC1a = target: T1, huASIC1a; assay: QPatch automated whole-cell patch-clamp on HEK293 cells stably expressing huASIC1a; type: cell-based; details: pH 6.0 activation after 15-20 min pre-incubation; concentration μM: KB_A07_PcTx1 6.6, KB_A12_PcTx1 5, KB_A12_Mba-1 3, KB_A12_Mba-2 2.3, KB_A07 6, KB_A12 3.3
# Experimental: Knottin Kv 1.3 and ASIC1a blockers expressed in the KnotBody format (see examples 6 and 7) were tested for their ability to inhibit the function of the ion channel targets. The effect of these KnotBodies on cells expressing the human Kv 1.3 (huKv1.3) or human ASIC1a channels was assessed using QPatch automated whole-cell patch-clamp electrophysiology (Sophion).
# To functionally assess the ASIC1a KnotBodies, HEK293 cells stably expressing huASIC1a (Sophion) were analysed using a QPatch electrophysiology assay in the presence or absence of the KnotBody fusions (using KB_A12 as a recipient and replacing the original EETI-II donor as shown in Table 8). The “parental” KB_A12 with the EETI-II donor was used as a negative control. Internal and external physiological solutions were freshly prepared prior to the assay. […]
# At the end of each KnotBody incubation and subsequent ASIC1a current activation, a full blocking concentration (300 nM) of the ASIC1a knottin inhibitor PcTx1 (positive control) was perfused onto the cell recording and a final activating pH 6.0 external solution was applied. The percentage remaining signal between activating pH 6.0 baseline (i.e. pre-KnotBody) and post-KnotBody incubation was determined.
# LOX-1 = LOX-1 (Homo sapiens, UniProt P78380); assay: Phage TRF binding assay of adhiron-antibody fusions on LOX-1; details: monoclonal phage; LOX-1 directly immobilised; non-specific binding checked on cMET-FC, GAS6-CD4, FGFR4-CD4, UPA, B-gal
# Experimental: In order to test the functionality of these adhiron-antibody fusions, monoclonal phage prepared from each clone was assessed for binding to LOX-1 in a TRF binding assay. In this assay, LOX-1 (immobilised directly on Maxisorp™ plates) binding of phage displaying adhiron-antibody fusion was detected using a mouse anti-M13 antibody (GE Healthcare) followed by europium conjugated anti-mouse antibody (Perkin Elmer). Parent KnotBodies KB_A07 and KB_A12 (EETI-II fusions) were included as controls. Proteins cMET-FC, GAS6-CD4, FGFR4-CD4, UPA and B-gal were used to examine non-specific binding.
# human Nav1.7 = human Nav1.7 (Homo sapiens, UniProt Q15858); assay: QPatch patch-clamp on CHO cells stably expressing human Nav1.7, single application (Example 19); type: cell-based; details: 20 minutes application; run-down of external solution control subtracted
# Experimental: The effect of these KnotBodies on cells expressing human Nav1.7 (huNav1.7) channel was assessed using QPatch automated patch-clamp platform (Sophion). For the testing of Nav1.7 ion channel currents, CHO cells stably expressing human Nav1.7 (GenBank accession number NM 002977; cell line catalogue number CT6003, Charles River Discovery, Cleveland, USA) were subjected to the QPatch electrophysiology assay in the presence or absence of the KnotBody fusions or the antibody isotypes (negative controls). Internal and external physiological solutions were freshly prepared prior to the assay. The extracellular solution contained 145 mM NaCl, 4 mM KCl, 2 mM CaCl2, 1 mM MgCl2, 10 mM HEPES and 10 mM glucose; the pH was adjusted to 7.4 with NaOH; the osmolarity was ˜305 mOsm/L. The intracellular solution contained: KF (120 mM), KCl (20 mM), HEPES (10 mM) EGTA (10 mM); the pH was adjusted to 7.2 with KOH; osmolarity was ˜300 mOsm/L.
# A series of depolarising voltage (channel activating) pulses were used to monitor the channel currents upon adding control (extracellular solution) to define a control baseline of current activity. To these measured control channel currents KnotBody or parental antibody isotypes (control molecules) were applied to the external bathing solution. The parental KnotBody KB_A12 (with trypsin inhibitor knottin EETI-II at CDR2) were used as test molecule isotype controls for the testing. […] The elicited, maximum outward current values measured during the −10 mV activating step for each solution period (a control, baseline level of current was determined at 10 minutes after application of the control external recording solution and a test level of current was determined after 20 minutes of application of KnotBody or its isotype) and average inhibition was determined between the current from the 10 minute baseline control current and the subsequent 20 minute KnotBody application. […] The average inhibition values (with external control reduction subtracted) for KnotBodies and isotypes was calculated.
# Sequence of human Nav1.7 (Q15858 other isoform, or with tags, fused parts or gaps): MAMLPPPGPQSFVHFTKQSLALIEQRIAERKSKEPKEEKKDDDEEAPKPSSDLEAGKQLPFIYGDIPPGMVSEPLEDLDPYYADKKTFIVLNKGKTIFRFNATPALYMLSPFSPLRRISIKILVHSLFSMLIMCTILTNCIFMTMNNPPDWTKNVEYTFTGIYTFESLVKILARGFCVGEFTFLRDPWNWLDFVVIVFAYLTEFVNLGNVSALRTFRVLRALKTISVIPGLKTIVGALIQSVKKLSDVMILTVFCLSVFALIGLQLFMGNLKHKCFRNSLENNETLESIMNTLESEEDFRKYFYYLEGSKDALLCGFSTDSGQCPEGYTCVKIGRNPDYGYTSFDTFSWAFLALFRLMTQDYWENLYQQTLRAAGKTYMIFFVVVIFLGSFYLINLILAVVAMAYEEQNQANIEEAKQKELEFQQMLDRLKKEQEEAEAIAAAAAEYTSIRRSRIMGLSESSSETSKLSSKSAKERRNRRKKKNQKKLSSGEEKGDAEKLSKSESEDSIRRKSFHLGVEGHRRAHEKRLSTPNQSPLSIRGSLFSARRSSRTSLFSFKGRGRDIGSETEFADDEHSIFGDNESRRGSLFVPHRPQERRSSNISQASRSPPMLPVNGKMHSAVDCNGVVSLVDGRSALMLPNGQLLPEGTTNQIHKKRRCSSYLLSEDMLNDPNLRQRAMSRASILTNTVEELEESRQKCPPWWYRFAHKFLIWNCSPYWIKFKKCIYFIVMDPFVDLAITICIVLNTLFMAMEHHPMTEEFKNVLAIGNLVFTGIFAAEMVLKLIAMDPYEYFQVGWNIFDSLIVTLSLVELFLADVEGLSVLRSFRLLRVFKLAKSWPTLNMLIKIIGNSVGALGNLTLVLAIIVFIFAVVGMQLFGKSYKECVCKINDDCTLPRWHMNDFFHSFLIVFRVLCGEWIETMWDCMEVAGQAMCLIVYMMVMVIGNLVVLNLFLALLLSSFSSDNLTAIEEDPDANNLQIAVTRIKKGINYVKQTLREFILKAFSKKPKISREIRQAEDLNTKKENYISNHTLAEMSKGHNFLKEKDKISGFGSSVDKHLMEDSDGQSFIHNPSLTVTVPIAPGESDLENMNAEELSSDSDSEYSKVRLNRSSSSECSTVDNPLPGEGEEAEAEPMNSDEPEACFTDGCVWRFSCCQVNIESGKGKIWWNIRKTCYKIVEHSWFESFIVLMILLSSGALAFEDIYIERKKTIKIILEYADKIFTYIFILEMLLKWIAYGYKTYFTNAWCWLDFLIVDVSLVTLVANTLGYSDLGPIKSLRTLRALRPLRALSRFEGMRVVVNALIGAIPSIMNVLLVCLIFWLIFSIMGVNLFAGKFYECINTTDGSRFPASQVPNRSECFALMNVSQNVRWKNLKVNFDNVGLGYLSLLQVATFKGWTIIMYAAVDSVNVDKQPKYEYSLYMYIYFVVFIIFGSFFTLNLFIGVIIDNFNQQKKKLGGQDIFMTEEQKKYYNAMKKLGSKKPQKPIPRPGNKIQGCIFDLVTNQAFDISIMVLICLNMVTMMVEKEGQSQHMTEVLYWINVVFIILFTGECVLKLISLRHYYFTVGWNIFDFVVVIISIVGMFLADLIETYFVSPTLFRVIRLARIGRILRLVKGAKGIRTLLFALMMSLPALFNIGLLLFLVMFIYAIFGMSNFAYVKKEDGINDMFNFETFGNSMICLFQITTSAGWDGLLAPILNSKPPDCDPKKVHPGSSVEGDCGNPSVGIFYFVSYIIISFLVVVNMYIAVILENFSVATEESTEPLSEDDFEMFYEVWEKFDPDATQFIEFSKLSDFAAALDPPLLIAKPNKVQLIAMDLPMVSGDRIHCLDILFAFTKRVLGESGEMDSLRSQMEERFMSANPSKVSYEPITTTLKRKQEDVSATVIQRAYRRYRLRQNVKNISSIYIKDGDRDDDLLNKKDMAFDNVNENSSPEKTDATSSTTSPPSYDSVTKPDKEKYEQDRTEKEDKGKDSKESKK
molecule,measurement,setting,value
"KB_A12: EETI-II VL CDR2 KnotBody, D1A12 VH, VL SEQ ID NO: 105/373; parental/isotype control (antibody, V domains shown) VH: EVQLVESGGGLVRPGGSLRLSCAASGFTFSSYAMSWVRQAPGKGLEWVSAISGSGGSTYYADSVKGRFTISRDNTKNSLYLQMTSLRADDTAFYYCVKDFGPGYGTGWFDYWGPGTLVTVSS VL: QSVLTQPPSVSEAPRQRVTITCSGSSSNIGNNAVNWYQQLPGKAPKLLIYAAGRCPRILMRCKQDSDCLAGCVCGPNGFCGANSGVSDRFSAAKSGTSASLAINGLRSEDEADYYCAAWDDSLNGYVFGTGTKLTVLG",% current remaining,huASIC1a,67.4%
same,binding to LOX-1,LOX-1,no detectable binding to the LOX-1
same,inhibition in measured Nav1.7 current,human Nav1.7,"small inhibition in measured current, which was not statistically significant"
